# Test results: IntAct's records for PubMed 22927393
# B1: Epsin-1 (Saccharomyces cerevisiae), Q12518 (parent)
# chain: MSKQFVRSAKNLVKGYSSTQVLVRNATSNDNHQVSKDSLIELAEKSYDSADFFEIMDMLDKRLNDKGKYWRHIAKALTVIDYLIRFGSENCVLWCRENLYIIKTLKEFRHEDDEGIDQGQIVRVKAKELTALLSDDERLNEERNMNIKGRNRKGRRRRGTGRSDENDDDLQRAISASRLTAEEDERRRKQDEDYETALQLSKEEEELKRLQDLQRMQQQQGQQQLQQPMYYDIFGNPITPEEYAQFQLQQQQQQQQQQLQQQPMYYDVFGNPITPEELAQFQQQQQLQEQQYLASMQQQQQAMSNNPFAKSEQSSSSPKRNQLVAASSPQQLQQQKQQEPLIQNRTGNQSMTDKYSKLNELLATGTGIDTFGNVGEARIPAQHTKTGTFINSQGTGYRQVSDDPNHNPFLNSQYTGLPSTSVVPTQTGYGFGNQSQQQSQNNGSNNRGYTLIDL
# partner: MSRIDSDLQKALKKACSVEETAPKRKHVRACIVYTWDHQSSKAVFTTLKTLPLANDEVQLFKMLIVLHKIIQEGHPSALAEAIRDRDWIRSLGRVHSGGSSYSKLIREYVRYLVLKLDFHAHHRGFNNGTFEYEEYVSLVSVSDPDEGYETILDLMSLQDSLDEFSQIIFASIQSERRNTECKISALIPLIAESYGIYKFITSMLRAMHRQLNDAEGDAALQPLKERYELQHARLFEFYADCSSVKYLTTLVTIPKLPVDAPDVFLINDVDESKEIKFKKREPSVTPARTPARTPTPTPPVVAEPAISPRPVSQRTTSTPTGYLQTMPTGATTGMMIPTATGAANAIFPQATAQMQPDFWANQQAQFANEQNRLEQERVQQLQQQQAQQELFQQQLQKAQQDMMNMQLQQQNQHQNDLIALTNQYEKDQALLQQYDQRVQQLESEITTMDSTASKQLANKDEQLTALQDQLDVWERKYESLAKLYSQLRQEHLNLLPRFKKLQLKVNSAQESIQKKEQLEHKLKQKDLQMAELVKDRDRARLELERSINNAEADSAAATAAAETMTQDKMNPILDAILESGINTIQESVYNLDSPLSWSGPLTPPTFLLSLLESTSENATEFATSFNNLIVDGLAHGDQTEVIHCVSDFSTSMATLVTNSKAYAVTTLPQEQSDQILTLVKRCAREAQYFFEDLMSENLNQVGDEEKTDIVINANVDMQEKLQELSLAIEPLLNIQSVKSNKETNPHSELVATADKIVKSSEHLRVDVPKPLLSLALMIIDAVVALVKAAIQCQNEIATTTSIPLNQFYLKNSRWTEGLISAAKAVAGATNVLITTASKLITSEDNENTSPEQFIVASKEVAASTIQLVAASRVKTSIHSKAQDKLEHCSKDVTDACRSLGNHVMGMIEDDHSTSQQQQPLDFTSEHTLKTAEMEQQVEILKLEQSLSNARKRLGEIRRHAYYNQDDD
# Variants of: B1
# Details: with sla2_yeast SLA2, P33338
row,Variant,effect of a mutation on the interaction
1,MSKQFVRSAKNLVKGYSSTQVLVRNATSNDNHQVSKDSLIELAEKSYDSADFFEIMDMLDKRLNDKGKYWRHIAKALTVIDYLIRFGSENCVLWCRENLYIIKALKEFRHEDDEGIDQGQIVRVKAKELTALLSDDERLNEERNMNIKGRNRKGRRRRGTGRSDENDDDLQRAISASRLTAEEDERRRKQDEDYETALQLSKEEEELKRLQDLQRMQQQQGQQQLQQPMYYDIFGNPITPEEYAQFQLQQQQQQQQQQLQQQPMYYDVFGNPITPEELAQFQQQQQLQEQQYLASMQQQQQAMSNNPFAKSEQSSSSPKRNQLVAASSPQQLQQQKQQEPLIQNRTGNQSMTDKYSKLNELLATGTGIDTFGNVGEARIPAQHTKTGTFINSQGTGYRQVSDDPNHNPFLNSQYTGLPSTSVVPTQTGYGFGNQSQQQSQNNGSNNRGYTLIDL [T104A],disrupting interaction strength
